For assay [1], the target named is VB1-008 monoclonal antibody. The assay is described as follows: peptide in molar excess (20× to 200×) against 0.5 µM VB1-008, flow cytometry on MDA-MB-435S cells. (A flow cytometer gives signals particle by particle.)
In assay [2] the target is Peptide 2 (Biotin-…) (human). The assay is described as follows: ELISA on peptide-coated plates, 75 µg/mL VB1-008; reference Peptide 3. (In an ELISA, binding on a coated surface is turned into a signal by an enzyme label.)

Where no end group is shown, it is not given here. The star is where a group is joined. Biotin = O=C1N[C@H]2[C@H](CS[C@H]2CCCCC(=O)*)N1

B1: Peptide 3 (Biotin-…) (peptide)
peptide: Biotin-ATNMDSSHSIT
With B1, in assay [1], the competition efficiency is 96%.

B2: Peptide 2 (Biotin-…) (peptide)
peptide: Biotin-RIPATNMDSSH
As for B2, in assay [1], the competition efficiency came to 60%.

B3: VB1-008 monoclonal antibody (antibody, V domains shown)
VH: QVQLQELGPRLVRPSQTLILTCTVSGGSVSGDEYYWSWLRQTPGKGLEWIGYMSYRGSSYYSPSLQSRVTIAVDRSKNEFSLKLTSVTAADAAVYFCARKYCGGDCRSGFDIWGRGTMVTVAS
VL: YELTQPPSVSVSPGQKAFITCSGDNLGNKYVCWYQQKPGQSPVLVIYEDTKRPSGIPERFSASNSGNTATLTISGTQPIDEADYYCQAWDSRTEIFGTGTKVTVLS
In assay [2], B3 gave a percent of the binding observed with Peptide 3 of 50 to 60%.

Values taken from US8383117.
